From publication PMC7826288, “Dynamics of TRF1 organizing a single human telomere” (Nucleic Acids Research, 2020)

Target: the molecule itself
Experiment: SEC; Superdex 200 Increase 10/300 GL, 20 mM Tris-HCl (pH 8.0), 200 mM NaCl; molecular weight assessed against standard molecular markers

B1: human TRF1(3-439) (natural protein, UniProt P54274 3-439, looked up)
chain: EDVSSAAPSPRGCADGRDADPTEEQMAETERNDEEQFECQELLECQVQVGAPEEEEEEEEDAGLVAEAEAVAAGWMLDFLCLSLCRAFRDGRSEDFRRTRNSAEAIIHGLSSLTACQLRTIYICQFLTRIAAGKTLDAQFENDERITPLESALMIWGSIEKEHDKLHEEIQNLIKIQAIAVCMENGNFKEAEEVFERIFGDPNSHMPFKSKLLMIISQKDTFHSFFQHFSYNHMMEKIKSYVNYVLSEKSSTFLMKAAAKVVESKRTRTITSQDKPSGNDVEMETEANLDTRKSVSDKQSAVTESSEGTVSLLRSHKNLFLSKLQHGTQQQDLNKKERRVGTPQSTKKKKESRRATESRIPVSKSQPVTPEKHRARKRQAWLWEEDKNLRSGVRKYGEGNWSKILLHYKFNNRTSVMLKDRWRTMKKLKLISSDSED
notes: also called TRF1 dimer; source: E. coli BL21(DE3), purified (Ni-NTA, 3C protease, HiTrap Heparin, Superdex 200)
For B1, the “stoichiometry N” value was 2.
